From patent publication US11066455B2, “Tmem100 peptides and variants thereof and their use in treating or preventing diseases or conditions” (The Johns Hopkins University, priority 2014, dated 2021)
* marks the point of attachment. Myristoyl = CCCCCCCCCCCCCC(=O)*

B1: Tmem100-3Q mutant (full-length, mouse) (protein)
chain: MTEESTKENLGAPKSPTPVTMEKNPKREVVVTTGPLVSEVQLMAATGGAELSCYRCIIPFAVVVFITGIVVTAVAYSFNSHGSIISIFGLVLLSSGLFLLASSALCWKVRQRNKKVQQQESQTALVVNQRCLFA

Tests used:
TRPV1 = biological target: T1, TRPV1 (Mus musculus, UniProt Q704Y3); experiment: Calcium imaging of DRG neurons, response to capsaicin (CAP); type: cell-based; conditions: peptide 200 nM pretreatment; 100 nM CAP; IB4-negative DRG neurons
T1 construct: calcium imaging data from the T100-Mut-treated (200 nM) DRG neurons; endogenous in cells; host or cells: primary mouse DRG neurons
T1 sequence (Q704Y3 whole entry): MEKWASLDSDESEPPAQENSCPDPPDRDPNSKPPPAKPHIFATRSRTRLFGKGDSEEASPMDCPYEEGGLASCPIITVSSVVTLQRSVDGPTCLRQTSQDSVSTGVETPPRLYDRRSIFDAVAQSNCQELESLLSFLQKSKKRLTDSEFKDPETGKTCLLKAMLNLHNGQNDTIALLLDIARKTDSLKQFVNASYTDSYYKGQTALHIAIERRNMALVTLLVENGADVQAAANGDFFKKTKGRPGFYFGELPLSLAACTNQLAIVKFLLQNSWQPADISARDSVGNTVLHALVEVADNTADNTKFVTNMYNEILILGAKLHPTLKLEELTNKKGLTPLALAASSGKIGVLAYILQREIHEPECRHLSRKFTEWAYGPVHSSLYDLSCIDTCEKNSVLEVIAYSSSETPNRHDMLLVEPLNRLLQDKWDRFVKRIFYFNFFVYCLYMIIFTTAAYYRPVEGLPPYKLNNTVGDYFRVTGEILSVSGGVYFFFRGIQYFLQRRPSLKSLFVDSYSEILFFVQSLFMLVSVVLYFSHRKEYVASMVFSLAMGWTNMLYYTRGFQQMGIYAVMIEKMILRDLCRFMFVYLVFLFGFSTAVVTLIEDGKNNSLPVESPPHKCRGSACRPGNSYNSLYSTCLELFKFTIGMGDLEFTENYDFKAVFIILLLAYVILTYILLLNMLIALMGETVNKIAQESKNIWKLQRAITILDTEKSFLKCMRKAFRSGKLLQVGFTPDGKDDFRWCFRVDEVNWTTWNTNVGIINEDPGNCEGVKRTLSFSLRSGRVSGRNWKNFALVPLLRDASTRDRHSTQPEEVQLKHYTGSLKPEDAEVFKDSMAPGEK
Protocol: Calcium imaging assays were performed as previously described (Liu et al., 2009). Cells were loaded with 2 μM fura 2-acetomethoxy ester (Molecular Probes) for 30 min in the dark at room temperature or for 45 minutes at 37° C. for DRG and cell lines, respectively. After washing, cells were imaged at 340 and 380 nm excitation to detect intracellular free calcium under a fluorescent microscope (Nikon Eclipse TE2000-S) and Lambda 10B shutter (Sutter Instrument). The cells were bathed in calcium imaging buffer (pH 7.45, 130 mM NaCl, 3 mM KCl, 2.5 mM CaCl2, 10 mM HEPES, 10 mM glucose, 1.2 mM NaHCO3, with sucrose to increase osmolarity to 290 mOsm). […] Images were processed and analyzed with NIS-Elements BR 2.30 software (Nikon). […] The data was analyzed with the experimenter blinded to the genotypes or constructs transfected.
DRG from 3 to 4-week old mice were collected in cold DH10 medium (90% DMEM/F-12, 10% FBS, 100 U/ml penicillin, and 100 μg/ml Streptomycin, Gibco) and treated with enzyme solution in HBSS containing collagenase (1.65 mg/mL, Worthington CLS I) and dispase (3.55 mg/mL, GIBCO 17105-041) at 37° C. for 30 minutes. […] This efficiency was determined by mCherry(+) divided by total number of cells in the bright fields. […]

[1] = biological target: TRPA1 (expressed in heterologous cells: CHO, HEK293T); experiment: cell-based or functional assay
Chain of TRPA1 (expressed in heterologous cells: CHO, HEK293T) (O75762 whole entry): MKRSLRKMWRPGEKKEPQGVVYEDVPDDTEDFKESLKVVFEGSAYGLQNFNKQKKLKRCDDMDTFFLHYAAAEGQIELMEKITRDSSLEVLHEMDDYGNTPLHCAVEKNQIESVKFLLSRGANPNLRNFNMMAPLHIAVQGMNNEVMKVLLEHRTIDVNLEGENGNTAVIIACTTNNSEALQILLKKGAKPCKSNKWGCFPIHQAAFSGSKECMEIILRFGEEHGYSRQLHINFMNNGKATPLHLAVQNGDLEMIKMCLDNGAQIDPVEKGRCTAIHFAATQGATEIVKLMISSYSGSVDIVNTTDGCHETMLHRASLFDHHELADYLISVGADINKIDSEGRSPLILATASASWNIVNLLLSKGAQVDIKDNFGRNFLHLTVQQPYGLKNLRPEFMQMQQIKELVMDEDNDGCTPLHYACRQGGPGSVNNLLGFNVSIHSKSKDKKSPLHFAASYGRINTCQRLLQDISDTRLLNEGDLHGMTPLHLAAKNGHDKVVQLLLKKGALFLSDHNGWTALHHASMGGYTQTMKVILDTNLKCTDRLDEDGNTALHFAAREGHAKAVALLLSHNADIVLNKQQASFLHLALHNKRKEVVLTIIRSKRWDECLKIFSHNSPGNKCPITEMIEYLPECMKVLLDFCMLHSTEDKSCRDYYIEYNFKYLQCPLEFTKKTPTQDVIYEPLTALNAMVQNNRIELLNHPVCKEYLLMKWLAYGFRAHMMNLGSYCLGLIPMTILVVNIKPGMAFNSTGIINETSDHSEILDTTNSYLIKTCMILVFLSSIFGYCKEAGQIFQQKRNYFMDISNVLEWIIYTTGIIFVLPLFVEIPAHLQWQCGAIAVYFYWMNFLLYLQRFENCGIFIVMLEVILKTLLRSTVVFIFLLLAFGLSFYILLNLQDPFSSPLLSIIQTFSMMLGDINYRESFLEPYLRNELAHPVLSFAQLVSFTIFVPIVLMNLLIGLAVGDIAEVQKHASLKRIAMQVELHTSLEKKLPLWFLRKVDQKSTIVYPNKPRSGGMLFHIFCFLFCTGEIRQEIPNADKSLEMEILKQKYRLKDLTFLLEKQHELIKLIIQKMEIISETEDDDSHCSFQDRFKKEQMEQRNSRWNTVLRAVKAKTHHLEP

[2] = biological target: TRPV1 (expressed in heterologous cells: CHO, HEK293T); experiment: cell-based or functional assay
TRPA1 = test system: T2, TRPA1; experiment: MO-evoked Ca2+ influx into CHO cells expressing TRPA1+TRPV1; type: cell-based; conditions: TRPA1+TRPV1+Tmem100-3Q (1:1:4) CHO cells
T2 construct: MO (10 μM)-evoked Ca2+ influx; other: TRPA1+TRPV1+Tmem100-3Q (1:1:4) CHO cells; MO (10 μM)-gated whole-cell current density; other: Vh=-60 mV; TRPA1+TRPV1+Tmem100-3Q (1:1:4) CHO cells; MO (10 μM)-induced single-channel activity (NPo); co-expressed with TRPA1+TRPV1 (1:1:4) in CHO cells
Protocol: Calcium imaging assays were performed as previously described (Liu et al., 2009). Cells were loaded with 2 μM fura 2-acetomethoxy ester (Molecular Probes) for 30 min in the dark at room temperature or for 45 minutes at 37° C. for DRG and cell lines, respectively. After washing, cells were imaged at 340 and 380 nm excitation to detect intracellular free calcium under a fluorescent microscope (Nikon Eclipse TE2000-S) and Lambda 10B shutter (Sutter Instrument). The cells were bathed in calcium imaging buffer (pH 7.45, 130 mM NaCl, 3 mM KCl, 2.5 mM CaCl2, 10 mM HEPES, 10 mM glucose, 1.2 mM NaHCO3, with sucrose to increase osmolarity to 290 mOsm). The reagents and buffers were applied through a gravity perfusion system at a rate of […], including mustard oil (Sigma 377430), cinnamaldehyde (Sigma C80687), menthol (Sigma M2780), and capsaicin (Sigma M2028). Cells with high baseline 340/380 values (>1.5) were excluded for analysis. For DRG neurons, IB4 staining was performed in the chamber with the dilution of 1:200 (Molecular Probes 121412) for 160 seconds before washing off at the end of each test. Images were processed and analyzed with NIS-Elements BR 2.30 software (Nikon). A responsive cell was defined as one that with greater than a 20% increase in the 340/380 ratio above the baseline. […] The data was analyzed with the experimenter blinded to the genotypes or constructs transfected.

Molecule	percentage of DRG neurons responding to CAP (TRPV1) [%]	MO (10 µM)-induced single-channel activity (NPo), CHO cells [1]	CAP (100 nM)-induced single-channel activity (NPo), CHO cells [2]	MO (10 μM)-evoked Ca2+ influx (TRPA1) [nM]
myr-QRVLEQVLQNWSRRANVKQAQKFQVKCT-COOH (Myristoyl-QRVLEQVLQNWSRRANVKQAQKFQVKCT-OH; SMILES CCCCCCCCCCCCCC(=O)N[C@@H](CCC(N)=O)C(=O)N[C@@H](CCCNC(=N)N)C(=O)N[C@H](C(=O)N[C@@H](CC(C)C)C(=O)N[C@@H](CCC(=O)O)C(=O)N[C@@H](CCC(N)=O)C(=O)N[C@H](C(=O)N[C@@H](CC(C)C)C(=O)N[C@@H](CCC(N)=O)C(=O)N[C@@H](CC(N)=O)C(=O)N[C@@H](Cc1c[nH]c2ccccc12)C(=O)N[C@@H](CO)C(=O)N[C@@H](CCCNC(=N)N)C(=O)N[C@@H](CCCNC(=N)N)C(=O)N[C@@H](C)C(=O)N[C@@H](CC(N)=O)C(=O)N[C@H](C(=O)N[C@@H](CCCCN)C(=O)N[C@@H](CCC(N)=O)C(=O)N[C@@H](C)C(=O)N[C@@H](CCC(N)=O)C(=O)N[C@@H](CCCCN)C(=O)N[C@@H](Cc1ccccc1)C(=O)N[C@@H](CCC(N)=O)C(=O)N[C@H](C(=O)N[C@@H](CCCCN)C(=O)N[C@@H](CS)C(=O)N[C@H](C(=O)O)[C@@H](C)O)C(C)C)C(C)C)C(C)C)C(C)C) [scrambled]	16±1.3			
B1		1.05	0.73	321 ± 18.2
